Broadly, the Kd is the equilibrium constant for the complex coming apart.

T1: bone morphogenetic protein-1 (human, UniProt P13497-2 121-730)
T1 construct: human BMP-1, the BMP-1 (BMP-1-1) splice variant of the BMP1 gene with CUB1-CUB2-EGF-CUB3 auxiliary domains; called full-length BMP-1 against the deletion mutants; also called BMP-1; BMP-1-1; source: Supplementary Methods
T1 sequence (looked up): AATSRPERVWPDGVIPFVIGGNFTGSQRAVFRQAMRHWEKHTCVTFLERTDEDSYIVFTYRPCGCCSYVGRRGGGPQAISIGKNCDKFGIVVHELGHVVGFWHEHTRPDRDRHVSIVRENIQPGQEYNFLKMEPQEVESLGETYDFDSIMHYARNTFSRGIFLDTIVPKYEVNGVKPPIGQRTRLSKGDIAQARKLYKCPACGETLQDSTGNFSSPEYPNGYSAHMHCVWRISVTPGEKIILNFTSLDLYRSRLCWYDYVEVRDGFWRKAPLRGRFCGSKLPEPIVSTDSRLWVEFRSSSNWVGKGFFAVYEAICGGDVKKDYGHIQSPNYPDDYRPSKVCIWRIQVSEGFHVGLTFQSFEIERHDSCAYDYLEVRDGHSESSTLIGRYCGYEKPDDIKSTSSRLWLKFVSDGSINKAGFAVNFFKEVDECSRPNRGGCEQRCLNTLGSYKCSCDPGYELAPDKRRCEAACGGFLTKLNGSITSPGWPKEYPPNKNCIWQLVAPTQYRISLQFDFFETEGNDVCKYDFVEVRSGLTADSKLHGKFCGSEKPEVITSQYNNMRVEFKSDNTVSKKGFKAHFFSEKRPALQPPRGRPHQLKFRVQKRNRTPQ

T2: procollagen C-proteinase enhancer 1, native form with no His tag (human, UniProt Q15113 26-449)
T2 construct: PCPE-1, native form with no His tag, used in the SPR analyses; The activity assays used another form, PCPE-1[Cter-8His]; also called PCPE-1
T2 sequence (looked up): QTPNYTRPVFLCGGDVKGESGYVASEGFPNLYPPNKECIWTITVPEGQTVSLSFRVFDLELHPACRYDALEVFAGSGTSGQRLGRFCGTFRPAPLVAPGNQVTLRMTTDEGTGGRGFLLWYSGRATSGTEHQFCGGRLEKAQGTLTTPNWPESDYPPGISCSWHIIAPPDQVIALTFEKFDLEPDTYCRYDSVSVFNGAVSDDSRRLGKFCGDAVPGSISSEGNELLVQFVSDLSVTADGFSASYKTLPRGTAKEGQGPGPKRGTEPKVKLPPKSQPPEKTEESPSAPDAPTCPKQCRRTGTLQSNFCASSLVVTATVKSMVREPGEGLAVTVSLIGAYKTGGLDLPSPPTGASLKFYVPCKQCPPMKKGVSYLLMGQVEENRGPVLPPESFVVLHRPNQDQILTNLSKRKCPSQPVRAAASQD

B1: procollagen C-proteinase enhancer-2 with N-terminal 6His-tag (natural protein, human, UniProt Q9UKZ9 24-415, looked up)
chain: QSPERPVFTCGGILTGESGFIGSEGFPGVYPPNSKCTWKITVPEGKVVVLNFRFIDLESDNLCRYDFVDVYNGHANGQRIGRFCGTFRPGALVSSGNKMMVQMISDANTAGNGFMAMFSAAEPNERGDQYCGGLLDRPSGSFKTPNWPDRDYPAGVTCVWHIVAPKNQLIELKFEKFDVERDNYCRYDYVAVFNGGEVNDARRIGKYCGDSPPAPIVSERNELLIQFLSDLSLTADGFIGHYIFRPKKLPTTTEQPVTTTFPVTTGLKPTVALCQQKCRRTGTLEGNYCSSDFVLAGTVITTITRDGSLHATVSIINIYKEGNLAIQQAGKNMSARLTVVCKQCPLLRRGLNYIIMGQVGEDGRGKIMPNSFIMMFKTKNQKLLDALKNKQC
notes: human PCPE-2, called full-length; two mutations of the bought clone (829 G>T, 874 C>A) were corrected; The most widely used PCPE-2 construct of the study; also called PCPE-2; PCPE-2[Nter-6His]; not shown: His6, N-terminal, kept
B2: mini-procollagen III (domain or fragment)
chain: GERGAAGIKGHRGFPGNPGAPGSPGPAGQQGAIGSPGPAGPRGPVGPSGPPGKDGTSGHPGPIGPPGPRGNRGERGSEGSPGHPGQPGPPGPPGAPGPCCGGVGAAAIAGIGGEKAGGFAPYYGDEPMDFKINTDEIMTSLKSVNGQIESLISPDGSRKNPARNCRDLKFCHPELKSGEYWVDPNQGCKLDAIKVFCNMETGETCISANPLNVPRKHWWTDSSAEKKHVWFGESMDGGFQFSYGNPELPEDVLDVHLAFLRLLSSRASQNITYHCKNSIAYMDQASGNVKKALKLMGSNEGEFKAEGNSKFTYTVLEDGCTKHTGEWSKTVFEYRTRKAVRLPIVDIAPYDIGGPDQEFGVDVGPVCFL
modifications: Homotrimer. The paper does not print the limits. The start assumes the last 33 Gly-X-Y triplets (helix end at 1196), recalled from earlier descriptions of this construct, followed by the intact …
B3: CUB1CUB2 domains of PCPE-2 generated from PCPE-2 3C (domain or fragment, human, UniProt Q9UKZ9 24-270, looked up)
chain: QSPERPVFTCGGILTGESGFIGSEGFPGVYPPNSKCTWKITVPEGKVVVLNFRFIDLESDNLCRYDFVDVYNGHANGQRIGRFCGTFRPGALVSSGNKMMVQMISDANTAGNGFMAMFSAAEPNERGDQYCGGLLDRPSGSFKTPNWPDRDYPAGVTCVWHIVAPKNQLIELKFEKFDVERDNYCRYDYVAVFNGGEVNDARRIGKYCGDSPPAPIVSERNELLIQFLSDLSLTADGFIGHYIFRPK
notes: human PCPE-2 from its beginning to amino-acid 270; an HRV 3C-protease site was inserted between amino-acids 270 and 271 of full-length human PCPE-2; Residues of the two 3C sites are probably left on both ends after cleavage; also called the CUB domains of PCPE-2; not shown: His6, N-terminal, cleaved

Holding throughout (conditions): both partners purified
The target of assay [1] is T1, bone morphogenetic protein-1. Briefly: SPR; BMP-1 immobilised by amine coupling on CM5 (974, 1302 or 1492 RU); 10 mM HEPES pH 7.4, 0.15 M NaCl, 5 mM CaCl2, 0.05% P20, 25 °C; PCPE-2 1.56-100 nM with steady-state fit (heterogeneous ligand model for kinetics), 50 nM for comparisons. (SPR reads the build-up and loss of mass on a sensor chip optically.)
The target is the same in assay [2]. The assay can be described thus: enzyme inhibition assay (fluorogenic peptide cleavage); apparent; 7 nM BMP-1, 20 µM Mca-YVADAPK(Dnp)-OH, PCPE-2 0.07-690 nM, 50 mM HEPES pH 7.4, 5 mM CaCl2, 0.02% βOG, 37 °C; Morrison equation for tight-binding inhibitors with a constant for partial inhibition.
The target of assay [3] is B1. Briefly: SPR; mini-procollagen III immobilised by amine coupling on CM5 (435, 437 or 651 RU); analytes in 10 mM HEPES pH 7.4, 0.15 M NaCl, 5 mM CaCl2, 0.05% P20, 25 °C; steady-state fit for constants, 50 nM single injections for the CUB1CUB2* mutants.
Assay [4] concerns the target T2, procollagen C-proteinase enhancer 1, …. Described as above.
The target in assay [5] is B3. The assay is described as above.

B1: in assay [1], the affinity, expressed as Kd, was 8.4 nM. Also, the Ki in assay [2] turned out to be 2.8 nM.

Regarding B2, the dissociation constant Kd was 11 nM in assay [3], 2.2 nM in assay [4] and around 30 nM in assay [5].

For B3, in assay [1], the binding result was “binds”.

These data come from paper PMC10696041, “Identification of PCPE-2 as the endogenous specific inhibitor of human BMP-1/tolloid-like proteinases” (Nature Communications, 2023).
